Series [1] addresses T1, GST-hTERT-HA (C-terminal region, amino acid 946-1132, of hTERT), O14746.
T1 chain: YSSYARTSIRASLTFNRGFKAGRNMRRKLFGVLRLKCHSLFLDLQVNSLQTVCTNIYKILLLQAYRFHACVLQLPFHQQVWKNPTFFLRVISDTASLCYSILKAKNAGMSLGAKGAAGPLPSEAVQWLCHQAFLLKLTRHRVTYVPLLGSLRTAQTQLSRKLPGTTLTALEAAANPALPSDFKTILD

The target of series [2] is T2, Flag-hTERT (N-terminal Flag-tagged full-length hTERT) (human, UniProt O14746 1-1132).
T2 construct: expressed in transfected H1299 cells; also called Flag-tagged hTERT
In words: co-immunoprecipitation from H1299 cells (anti-Flag IP, anti-V5 immunoblot), with MG132. Here is the method: Amino acid sequences surrounding the RING finger domain in MKRN1 and mutants used in this study. Cysteines and a histidine in the RING finger domain are shown in red. Mutated residue in MKRN1^H307E is shown in blue. (C) H1299 cells co-transfected with hTERT-HA and MKRN1 -V5 were either untreated or treated for 2 hours with 10 μg/ml ALLnN. Anti-HA immunoprecipitates were analyzed by immunoblotting using an anti-V5 antibody probe. […] (D) H1299 cells co-transfected with Flag-hTERT and MKRN1-V5 were either untreated or treated for 2 hours with 10 μM MG132. Anti-Flag immunoprecipitates were analyzed by immunoblotting using an anti-V5 antibody probe. […] Flag-hTERT was visualized with an anti-Flag antibody probe.
H1299 cells were transiently transfected with the expression vectors indicated in the figure legends using TransFast transfection reagent (Promega, Medison, Wis.) according to the manufacturer's instructions. Cells were lysed with buffer containing 0.5% NP-40, 50 mM Tris-HCl (pH 7.5), 150 mM NaCl, 2 mM phenyl methylsulphonyl fluoride. […] When ubiquitin conjugates of hTERT were detected, immunoprecipitation was performed with lysis buffer containing 0.1% SDS to dissociate its interacting proteins. […]

For series [3], the target named is T2, Flag-hTERT (N-terminal Flag-tagged …). In words: inferred from the dominant negative effect in the in vivo ubiquitination assay in H1299 cells. Here is the method: H1299 cells were transiently transfected with the expression vectors indicated in the figure legends using TransFast transfection reagent (Promega, Medison, Wis.) according to the manufacturer's instructions. Cells were lysed with buffer containing 0.5% NP-40, 50 mM Tris-HCl (pH 7.5), 150 mM NaCl, 2 mM phenyl methylsulphonyl fluoride. After centrifugation at 12,000 rpm for 30 min, the supernatants were immunoprecipitated for 2 hours with anti-Flag (Sigma, St. Louis, Mo.) or anti-HA (Santa Cruz biotechnology, Santa Cruz, Calif.) antibodies and then incubated with Sepharose beads conjugated to Protein G (Amersham Biosciences Inc., Piscataway, N.J.). When ubiquitin conjugates of hTERT were detected, immunoprecipitation was performed with lysis buffer containing 0.1% SDS to dissociate its interacting proteins. Immunoblot analyses were performed using anti-hTERT (Santa Cruz biotechnology, Santa Cruz, Calif.), anti-V5 (Invitrogen, Carlsbad, Calif.), anti-HA, and anti-Flag antibodies.
To investigate whether MKRN1 contributes to the ubiqitination of hTERT in vivo, H1299 cells were cotransfected with Flag-hTERT, HA-ubiquitin, and MKRN1-V5 constructs, and immunoprecipitated with anti-Flag antibody followed by immunoblotting with anti-HA antibody. Ubiquitin conjugates of hTERT were easily detected in the presence of MG132 (FIG. 4B, lane 2 in upper blot). […]

Positions count from the first letter of the chain named. Names and notes keep the numbering of the source.

B1: MKRN1-V5 (enzyme, not shown: small tags and cut ends)
chain: MAEAATPGTTATTSGAGAAAATAAAASPTPIPTVTAPSLGAGGGGGGSDGSGGGWTKQVTCRYFMHGVCKEGDNCRYSHDLSDSPYSVVCKYFQRGYCIYGDRCRYEHSKPLKQEEATATELTTKSSLAASSSLSSIVGPLVEMNTGEAESRNSNFATVGAGSEDWVNAIEFVPGQPYCGRTAPSCTEAPLQGSVTKEESEKEQTAVETKKQLCPYAAVGECRYGENCVYLHGDSCDMCGLQLLHPMDAAQRSQHIKSCIEAHEKDMELSFAVQRSKDMVCGICMEVVYEKANPSERRFGILSNCNHTYCLKCIRKWRSAKQFESKIIKSCPECRITSNFVIPSEYWVEEKEEKQKLILKYKEAMSNKACRYFDEGRGSCPFGGNCFYKHAYPDAGREEPQRQKVGTSSRYRAQRRNHFWELIEERENSNPFDNDEEEVVTFELGEMLLMLLAAGGDDELTDSEDEWDLFHDELEDFYDLDL
notes: Full-length MKRN1 expressed in transfected H1299 cells
On to B1, for which, in series [1], the “in vitro ubiquitination assay (anti-HA immunoblot)” value is “the C-terminal domain (residues 946-1132) of hTERT was efficiently ubiquitinated by wild-type MKRN1”. Further, the binding result in series [2] was “binds”.

B2: MKRN1^H307E-V5 (enzyme, not shown: small tags and cut ends)
chain: B1 chain with H307E
notes: Expressed in transfected H1299 cells together with wild-type MKRN1-V5; also called hMKRN1^H307E
B2: the “in vitro ubiquitination assay (anti-HA immunoblot)” value in series [1] is reported as “but not by mutants MKRN1^307E or MKRN1^ΔC”. Further, the binding result in series [3] is listed as “binds”.
